Laboratory results reported in publication PMC7522650, “An Alternative Binding Mode of IGHV3-53 Antibodies to the SARS-CoV-2 Receptor Binding Domain” (Cell Reports, 2020).
Changes are numbered by the printed parent chain.

Biological target: SARS-CoV-2 spike (S) protein receptor-binding domain (RBD), residues 319-541 (SARS-CoV-2, Wuhan-Hu-1 (GenBank …, UniProt P0DTC2))
Experiment: BLI
Details: both partners purified

B1: COVA2-39 Fab (Fab, V domains shown)
VH: QVQLVETGGGLIQPGGSLRLSCAASGFTVSSNYMSWVRQAPGKGLEWVSVIYTGGTTYYADSVKGRFTISRDNSKNTLYLQMNSLRAEDTAVYYCARAHVDTAMVESGAFDIWGQGTRVTVSS
VL: QSALTQPASVSGSPGQSITISCTGTSSDVGSYNLVSWYQQHPGKAPKLMIYEVTKRPSGVSNRFSGSKSGNTASLTISGLQAEDEADYYCCSYAGSSTWVFGGGTKLTVL
Question: For B1, which Kd is on record?
Answer: 21 nM

B2: COVA2-39 with the 53TGGT56 motif reverted to the germline-encoded 53SGGS56 motif (Fab, V domains shown)
VH: B1 VH with T53S, T56S
VL: B1 VL
Question: How did the “fold decrease in other” value turn out when B2 was run?
Answer: ≥ 50 fold

B3: COVA2-04 Fab (Fab, V domains shown)
VH: QVQLVETGGGLIQPGGSLRLSCAASGFTVSSNYMSWVRQAPGKGLEWVSVIYSGGSTFYADSVKGRFTISRDNSKNTLYLQMNSLRAEDTAVYYCARDLERAGGMDVWGQGTMVTVSS
VL: not shown
Question: How did the Kd turn out when B3 was run?
Answer: 40 nM
